Data from article PMC3810028.
pIC50, pKd: −log10 of the molar value. Like-named read-outs stand apart in the source and are kept apart here.

Key:
[1] = biological target: HIV-1 YU-2 envelope gp120 with a C-terminal hexa-histidine tag (HIV-1 (YU-2 strain)) (UniProt P35961); assay: ITC
[2] = biological target: HIV-1 YU-2 envelope gp120 with a C-terminal hexa-histidine tag (HIV-1 (YU-2 strain)) (UniProt P35961); assay: SPR
[3] = biological target: HIV-1 YU-2 envelope gp120 with a C-terminal hexa-histidine tag (HIV-1 (YU-2 strain)) (UniProt P35961); assay: SPR; remark: listed apart in the source
[4] = biological target: HIV-1 YU-2 envelope gp120 with a C-terminal hexa-histidine tag (HIV-1 (YU-2 strain)) (UniProt P35961)

peptide triazole KR-41 (UM-24 with Trp 6 replaced by L-3-benzothienylalanine, Bta)
dH [1]: -14.9 kcalmol^−1 | pIC50 [2]: 7.29

peptide triazole KR-42 (DCit-DAsn-DAsn-DIle-LFtP-LBta-DSer-NH2)
pKd [1]: 6.55 | dH [1]: -14.6 kcalmol^−1 | pIC50 [3]: 6.93 | pIC50 [2]: 6.68

peptide triazole UM-24 (Cit-N-N-I-X-W-S-CONH2)
EC50 of inhibition of single-round infection by HIV-1BaL (Env of BaL, not YU-2) [4]: 6200 nM | pKd [1]: 7.68 | dH [1]: -14.1 kcalmol^−1 | pIC50 [3]: 7.35 | pIC50 [2]: 7.15
